Target: death receptor 3 (DR3) on human PBMCs / T cells (human) (UniProt Q93038)
Test: cell-based or functional assay

death receptor 3 (DR3) on human PBMCs / T cells (human), sequence (Q93038 25-417 limits assumed): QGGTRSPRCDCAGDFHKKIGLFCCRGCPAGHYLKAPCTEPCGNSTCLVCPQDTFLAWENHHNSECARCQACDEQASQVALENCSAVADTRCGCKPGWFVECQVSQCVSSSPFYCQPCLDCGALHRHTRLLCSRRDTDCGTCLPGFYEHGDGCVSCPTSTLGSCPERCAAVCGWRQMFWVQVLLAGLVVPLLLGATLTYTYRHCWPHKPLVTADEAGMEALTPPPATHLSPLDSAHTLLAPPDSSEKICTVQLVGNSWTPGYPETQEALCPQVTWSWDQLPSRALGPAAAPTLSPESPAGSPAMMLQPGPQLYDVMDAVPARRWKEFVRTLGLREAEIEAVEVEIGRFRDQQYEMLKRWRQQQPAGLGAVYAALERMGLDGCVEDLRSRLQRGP

## recombinant soluble human Flag-TL1A(EC) (ligand)
  IL-13 production by T cells with anti-CD3/anti-CD28, 1 ug/mL TL1A-flag (FIG. 4): 1300 pg/mL
  IL-13 production by T cells with anti-CD3/anti-CD28, 1 ug/mL TL1A-flag (FIG. 8): 1850 pg/mL
  p65 phosphorylation-positive cells (%) in PBMCs, 40 nM TL1A-flag (FIG. 2B): 55%
  p65 phosphorylation-positive cells (%) in PBMCs, 40 nM TL1A-flag alone (FIG. 2A): 45%
  p65 phosphorylation-positive cells (%) in PBMCs, TL1A alone (FIG. 3): 55%
  p65 phosphorylation-positive cells (%) in PBMCs, TL1A alone (FIG. 5): 69.5%
  p65 phosphorylation-positive cells (%) in PBMCs, TL1A alone (FIG. 6): 45%
  p65 phosphorylation-positive cells (%) in PBMCs, TL1A alone (FIG. 7): 55%
